Test results: US20210324028A1 (Pfizer, published 2021)
Numbering of substitutions follows the chain as printed. Numbers in names are those of the source.

T1: human IL-2Rβ (human, UniProt P14784 27-240, limits assumed)
T1 construct: also called hIL-2Rβ; IL-2 receptor beta
T1 sequence (looked up): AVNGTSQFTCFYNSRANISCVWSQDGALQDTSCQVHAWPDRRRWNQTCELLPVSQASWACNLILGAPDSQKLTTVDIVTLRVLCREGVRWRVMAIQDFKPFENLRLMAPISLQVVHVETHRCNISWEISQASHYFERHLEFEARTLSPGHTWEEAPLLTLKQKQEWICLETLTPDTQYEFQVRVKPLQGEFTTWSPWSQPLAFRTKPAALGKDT

B1: hIL-15 V49R/H32P (ligand)
chain: NWVNVISDLKKIEDLIQSMHIDATLYTESDVPPSCKVTAMKCFLLELQRISLESGDASIHDTVENLIILANNSLSSNGNVTESGCKECEELEEKNIKEFLQSFVHIVQMFINTGGGGSGHHHHHHHHGGGLNDIFEAQKIEWHE
B2: hIL-15 V49R/I111D (ligand)
chain: B1 chain with P32H, I111D
B3: hIL-15 V49R/H32R (ligand)
chain: B1 chain with P32R
B4: hIL-15 V49R/H32V (ligand)
chain: B1 chain with P32V
B5: hIL-15 V49R/K11A (ligand)
chain: B1 chain with K11A, P32H
B6: hIL-15 V49R/K11I (ligand)
chain: B1 chain with K11I, P32H
B7: hIL-15 V49R/K10W (ligand)
chain: B1 chain with K10W, P32H
B8: hIL-15 V49R/H32Q (ligand)
chain: B1 chain with P32Q
B9: hIL-15 V49R/K10H (ligand)
chain: B1 chain with K10H, P32H
B10: hIL-15 V49R/I111A (ligand)
chain: B1 chain with P32H, I111A
B11: hIL-15 V49R/I68R (ligand)
chain: B1 chain with P32H, I68R
B12: hIL-15 V49R/K10S (ligand)
chain: B1 chain with K10S, P32H
B13: hIL-15 V49R/K10R (ligand)
chain: B1 chain with K10R, P32H
B14: hIL-15 V49R/K11Q (ligand)
chain: B1 chain with K11Q, P32H
B15: hIL-15 V49R/I68L (ligand)
chain: B1 chain with P32H, I68L
B16: hIL-15 V49R/K10E (ligand)
chain: B1 chain with K10E, P32H
B17: hIL-15 V49R/I111S (ligand)
chain: B1 chain with P32H, I111S
B18: hIL-15 V49R/K10D (ligand)
chain: B1 chain with K10D, P32H
B19: hIL-15 V49R/I111K (ligand)
chain: B1 chain with P32H, I111K
B20: hIL-15 V49R/K10Q (ligand)
chain: B1 chain with K10Q, P32H
B21: hIL-15 V49R/H32S (ligand)
chain: B1 chain with P32S
B22: hIL-15 V49R/K10N (ligand)
chain: B1 chain with K10N, P32H
B23: hIL-15 V49R/I68V (ligand)
chain: B1 chain with P32H, I68V
B24: hIL-15 V49R/K11N (ligand)
chain: B1 chain with K11N, P32H
B25: hIL-15 V49R/K11L (ligand)
chain: B1 chain with K11L, P32H
B26: hIL-15 V49R/I68M (ligand)
chain: B1 chain with P32H, I68M
B27: hIL-15 V49R/K10M (ligand)
chain: B1 chain with K10M, P32H
B28: hIL-15 V49R/I68Y (ligand)
chain: B1 chain with P32H, I68Y
B29: hIL-15 V49R/I68N (ligand)
chain: B1 chain with P32H, I68N
B30: hIL-15 V49R/I68T (ligand)
chain: B1 chain with P32H, I68T
B31: hIL-15 V49R/K10L (ligand)
chain: B1 chain with K10L, P32H
B32: hIL-15 V49R/I68F (ligand)
chain: B1 chain with P32H, I68F
B33: hIL-15 V49R/K11H (ligand)
chain: B1 chain with K11H, P32H
B34: hIL-15 V49R/K10G (ligand)
chain: B1 chain with K10G, P32H
B35: hIL-15 V49R/K10A (ligand)
chain: B1 chain with K10A, P32H
B36: hIL-15 V49R/K11E (ligand)
chain: B1 chain with K11E, P32H
B37: hIL-15 V49R/K11D (ligand)
chain: B1 chain with K11D, P32H
B38: hIL-15 V49R/I68A (ligand)
chain: B1 chain with P32H, I68A
B39: hIL-15 V49R/I68H (ligand)
chain: B1 chain with P32H, I68H

molecular target: T1, human IL-2Rβ; experiment: SPR, steady state

Kd	Binder
146 nM	B1
> 500 nM	B2
156 nM	B3
247 nM	B4
206 nM	B5
76 nM	B6
185 nM	B7
147 nM	B8
114 nM	B9
375 nM	B10
> 500 nM	B11
496 nM	B12
146 nM	B13
107 nM	B14
245 nM	B15
360 nM	B16
> 500 nM	B17
> 500 nM	B18
397 nM	B19
250 nM	B20

Kd	Binder
176 nM	B21
230 nM	B22
296 nM	B23
291 nM	B24
92.2 nM	B25
> 1000 nM	B26
391 nM	B27
> 1000 nM	B28
> 1000 nM	B29
> 500 nM	B30
348 nM	B31
> 1000 nM	B32
104 nM	B33
> 500 nM	B34
321 nM	B35
160 nM	B36
> 500 nM	B37
> 500 nM	B38
> 1000 nM	B39

molecular target: T2, human IL-15Rα (human, UniProt Q13261 31-205, limits assumed); experiment: SPR, steady state
T2 construct: also called hIL-15Rα; IL-15 receptor alpha
T2 sequence (Q13261 31-205 limits assumed): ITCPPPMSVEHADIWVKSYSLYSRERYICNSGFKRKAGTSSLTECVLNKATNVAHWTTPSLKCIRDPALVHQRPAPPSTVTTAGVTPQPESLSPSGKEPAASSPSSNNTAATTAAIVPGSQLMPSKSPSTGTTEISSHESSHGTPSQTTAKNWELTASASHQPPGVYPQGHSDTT

Kd	Binder
162 nM	B1
214 nM	B2
~131 nM	B3
99.8 nM	B4
191 nM	B5
95.8 nM	B6
101 nM	B7
64 nM	B8
85.6 nM	B9
173 nM	B10
102 nM	B11
195 nM	B12
94.5 nM	B13
156 nM	B14
73.6 nM	B15
126 nM	B16
223 nM	B17
270 nM	B18
199 nM	B19
100 nM	B20

Kd	Binder
110 nM	B21
128 nM	B22
104 nM	B23
217 nM	B24
142 nM	B25
96.2 nM	B26
122 nM	B27
92.9 nM	B28
85 nM	B29
76.3 nM	B30
124 nM	B31
78.5 nM	B32
147 nM	B33
209 nM	B34
150 nM	B35
159 nM	B36
242 nM	B37
113 nM	B38
87.6 nM	B39
